Results as given in article PMC2246632.

What was measured:
[1] = molecular target: T1, Cep3 (Cep3 1-608, full-length) (Saccharomyces cerevisiae, UniProt P40969 1-608); test: EMSA
[2] = molecular target: Cep3Δ (lacks zinc cluster) (Saccharomyces cerevisiae, UniProt P40969 48-608); test: EMSA
[3] = molecular target: T1, Cep3 (Cep3 1-608, full-length); test: competition

T1 sequence (P40969 whole entry): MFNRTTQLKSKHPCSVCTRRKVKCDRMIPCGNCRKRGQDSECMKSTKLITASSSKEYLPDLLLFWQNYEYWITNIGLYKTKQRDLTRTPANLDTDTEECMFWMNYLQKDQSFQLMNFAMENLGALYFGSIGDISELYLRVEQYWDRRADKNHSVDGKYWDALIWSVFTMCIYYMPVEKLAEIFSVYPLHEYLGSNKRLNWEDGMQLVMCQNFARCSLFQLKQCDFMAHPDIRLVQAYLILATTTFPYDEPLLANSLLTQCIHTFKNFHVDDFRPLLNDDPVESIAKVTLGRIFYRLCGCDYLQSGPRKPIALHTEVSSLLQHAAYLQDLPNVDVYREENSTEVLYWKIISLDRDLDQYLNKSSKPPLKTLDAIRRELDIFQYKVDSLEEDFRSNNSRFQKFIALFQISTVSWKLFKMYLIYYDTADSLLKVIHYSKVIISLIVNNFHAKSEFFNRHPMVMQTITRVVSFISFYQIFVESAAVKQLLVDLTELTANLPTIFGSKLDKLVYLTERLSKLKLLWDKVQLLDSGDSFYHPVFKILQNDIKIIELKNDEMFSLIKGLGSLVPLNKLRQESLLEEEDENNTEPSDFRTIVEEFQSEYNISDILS
Cep3Δ (lacks zinc cluster), sequence (P40969 48-608, stated change not applied): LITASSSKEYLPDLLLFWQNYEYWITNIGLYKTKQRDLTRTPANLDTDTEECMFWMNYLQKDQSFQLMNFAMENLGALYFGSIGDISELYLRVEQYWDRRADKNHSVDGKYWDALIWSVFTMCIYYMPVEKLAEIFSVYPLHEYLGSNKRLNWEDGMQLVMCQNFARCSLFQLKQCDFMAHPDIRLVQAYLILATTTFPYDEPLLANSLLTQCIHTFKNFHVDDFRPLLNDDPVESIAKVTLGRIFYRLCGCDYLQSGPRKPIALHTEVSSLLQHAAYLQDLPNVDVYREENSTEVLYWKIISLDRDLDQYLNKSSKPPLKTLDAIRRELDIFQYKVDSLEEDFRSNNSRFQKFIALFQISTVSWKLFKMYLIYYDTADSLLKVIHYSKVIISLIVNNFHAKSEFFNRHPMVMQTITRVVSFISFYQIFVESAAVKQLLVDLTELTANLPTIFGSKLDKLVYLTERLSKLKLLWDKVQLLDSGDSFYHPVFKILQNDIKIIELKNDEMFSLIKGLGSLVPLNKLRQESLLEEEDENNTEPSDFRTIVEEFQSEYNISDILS

Binder | binding result [1] | binding result [2] | binding result [3]
native CDEIII probe (dsDNA) DNA 1: AAATATTAGTGTATTTGATTTCCGAAAGTTAAA DNA 2: TTTAACTTTCGGAAATCAAATACACTAATATTT | binds | no binding | –
site 2 mutant (dsDNA) DNA 1: AAATATTAGAACTTTTGATTTCCGAAAGTTAAA DNA 2: TTTAACTTTCGGAAATCAAAAGTTCTAATATTT | – | – | binds
site 1 mutant (dsDNA) DNA 1: AAATATTAGTGTATTTGATTTGATAAAGTTAAA DNA 2: TTTAACTTTATCAAATCAAATACACTAATATTT | – | – | no binding
native CDEIII competitor (dsDNA) DNA 1: AAATATTAGTGTATTTGATTTCCGAAAGTTAAA DNA 2: TTTAACTTTCGGAAATCAAATACACTAATATTT | – | – | binds
